Common to all, as to details: Brevibacillus brevis
Substrate in series [1]: CC(=O)NCCSC(=O)[C@H](CC(C)C)NC(=O)[C@H](CCCN)NC(=O)[C@H](CC(N)=O)NC(=O)[C@H](Cc1ccc(O)cc1)NC(=O)[C@H](CCC(N)=O)NC(=O)[C@H](CC(N)=O)NC(=O)[C@@H](Cc1ccccc1)NC(=O)[C@H](Cc1ccccc1)NC(=O)[C@@H]1CCCN1C(=O)[C@H](N)Cc1ccccc1
Kind of series: (§1) Apparent kinetic constant (Km) determined for tyrocidine thioesterase amplified from Bacillus brevis (ATCC8185).

Substrate in series [2]: CC(=O)NCCSC(=O)[C@H](CC(C)C)NC(=O)[C@H](CCCN)NC(=O)[C@@H](NC(=O)[C@H](Cc1ccc(O)cc1)NC(=O)[C@H](CCC(N)=O)NC(=O)[C@H](CC(N)=O)NC(=O)[C@@H](Cc1ccccc1)NC(=O)[C@H](Cc1ccccc1)NC(=O)[C@H](C)NC(=O)[C@H](N)Cc1ccccc1)C(C)C
Described as §1.

Substrate in series [3]: CC(=O)NCCSC(=O)[C@H](CC(C)C)NC(=O)[C@H](CCCN)NC(=O)[C@@H](NC(=O)[C@H](Cc1ccc(O)cc1)NC(=O)[C@H](CCC(N)=O)NC(=O)[C@H](CC(N)=O)NC(=O)[C@@H](Cc1ccccc1)NC(=O)[C@H](Cc1ccccc1)NC(=O)[C@H](CC(N)=O)NC(=O)[C@H](N)Cc1ccccc1)C(C)C
Described as §1.

Substrate in series [4]: CC(=O)NCCSC(=O)[C@H](CC(C)C)NC(=O)[C@H](CCCN)NC(=O)[C@@H](NC(=O)[C@H](Cc1ccc(O)cc1)NC(=O)[C@H](CCC(N)=O)NC(=O)[C@H](CC(N)=O)NC(=O)[C@H](CO)NC(=O)[C@H](Cc1ccccc1)NC(=O)[C@@H]1CCCN1C(=O)[C@H](N)Cc1ccccc1)C(C)C
Described as §1.

Substrate in series [5]: CC(=O)NCCSC(=O)[C@H](CC(C)C)NC(=O)[C@H](CCCN)NC(=O)[C@@H](NC(=O)[C@H](Cc1ccc(O)cc1)NC(=O)[C@H](CCC(N)=O)NC(=O)[C@H](CC(N)=O)NC(=O)[C@H](Cc1ccc(O)cc1)NC(=O)[C@H](Cc1ccccc1)NC(=O)[C@@H]1CCCN1C(=O)[C@H](N)Cc1ccccc1)C(C)C
The series is described as §1.

B1: Thioesterase GrsT homolog tycF (Brevibacillus brevis), O30412 (protein)
chain: MKLFCFPYAGGLPGIYYSWKSRLPPTFLEIDAFEVRPHIPQPNRDVFLPTSFYELLEDVCDRITPALTETPFAFFGHSMGGLVAFELTRKLMQKGAPLPQHLFLSASRAPHAYGKLAKTYNLPHDEFVEALRKLGGTPDDVLENQELLELFLPILRADFQAVQTYEMNPDLPRQVPVNMTVLYGTEDTIALEDIWAWRDYCQGACQFFPVSGGHFFIHHQTSPILEIIQNVLKEEKTVAIHSSF
With B1, the Km in series [1] is 55 µM; in series [2], 31 µM; in series [3] it was 82 µM; in series [4] it was 14 µM; in series [5] it was 65 µM.

The values above are taken from ChEMBL document CHEMBL1135258, “Substrate spectrum of tyrocidine thioesterase probed with randomized peptide N-acetylcysteamine thioesters” (Bioorg Med Chem Lett, 2002).
